The RNAGym collection of RNA variant scans (doi:10.1093/molbev/msab373)

B1: Azoarcus group I ribozyme (parent)
chain: GUGCCUUGCGCCGGGAAACCACGCAAGGGAUGGUGUCAAAUUCGGCGAAACCUAAGCGCCCGCCCGGGCGUAUGGCAACGCCGAGCCAAGCUUCGGCGCCUGCGCCGAUGAAGGUGUAGAGACUAGACGGCACCCACCUAAGGCAAACGCUAUGGUGAAGGCAUAGUCCAGGGAGUGGCGAAAGUCACACAAACCGG

Variants of: B1
Test: reverse-splicing fitness (ratio to wild type); higher = more active; in vitro selection; Mg2+ level not given
Outline: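 An in vitro group I ribozyme library with randomized positions was T7-transcribed and gel-purified. In triplicate, 10 pmol RNA in EPPS pH 7.5 was reacted with 50 pmoles of a 30-nt RNA substrate for 1 h at 37 °C across several added MgCl2 levels (1–48 mM), then stopped with EDTA. Products were reverse transcribed from a substrate-complementary primer, PCR-amplified and sequenced (HiSeq 4000). Fitness is a variant's read proportion after selection over that before, normalised to wild type.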

Variant	reverse-splicing fitness
GUGCCUUGCGCCGGGAAACCACGCAAGGGAUGGUGUCAAAUUCGGCGAAACCUAAGCGCCCGCCCGGGCGUAUGGCAACGCGGAGCCAAGCUUCGGCGCCUGCGCCGAUGGAGGUGUAGGGACUAGACGGCACCCACCUAAGGCGAACGGUAUGGUGAAGGCAUAGUCUAGGGAGUGGCGAAAGUCACACAAACCGG [C82G A111G A120G A145G C150G C169U]	0.00986
GUGCCUUGCGCCGGGAAACCACGCAAGGGAUGGUGUCAAAUUCGGCGAAACCUAAGCGCCCGCCCGGGCGUAUGGCAACGCGGAGCCAAGCUUCGGCGCCUGCGCCGAUGGAGGUGUAGGGACUAGACGGCACCCACCUAAGGCGAACGGUAUGGUGAAGGCAUAGUCAAGGGAGUGGCGAAAGUCACACAAACCGG [C82G A111G A120G A145G C150G C169A]	0.00957
GUGCCUUGCGCCGGGAAACCACGCAAGGGAUGGUGUCAAAUUCGGCGAAACCUAAGCGCCCGCCCGGGCGUAUGGCAACGCGGAGCCAAGCUUCGGCGCCUGCGCCGAUGGAGGUGUAGGGACUAGACGGCACCCACCUAAGGCGAACGCUAUGGUGAAGGCAUAGUCCAGGGAGUGGCGAAAGUCACACAAACCGG [C82G A111G A120G A145G]	0.0179
GUGCCUUGCGCCGGGAAACCACGCAAGGGAUGGUGUCAAAUUCGGCGAAACCUAAGCGCCCGCCCGGGCGUAUGGCAACGCGGAGCCAAGCUUCGGCGCCUGCGCCGAUGGAGGUGUAGGGACUAGACGGCACCCACCUAAGGCGAACGAUAUGGUGAAGGCAUAGUCUAGGGAGCGGCGAAAGUCACACAAACCGG [C82G A111G A120G A145G C150A C169U U176C]	0.0177
GUGCCUUGCGCCGGGAAACCACGCAAGGGAUGGUGUCAAAUUCGGCGAAACCUAAGCGCCCGCCCGGGCGUAUGGCAACGCGGAGCCAAGCUUCGGCGCCUGCGCCGAUGGAGGUGUAGGGACUAGACGGCACCCACCUAAGGCGAACGAUAUGGUGAAGGCAUAGUCUAGGGAGGGGCGAAAGUCACACAAACCGG [C82G A111G A120G A145G C150A C169U U176G]	0.00809
GUGCCUUGCGCCGGGAAACCACGCAAGGGAUGGUGUCAAAUUCGGCGAAACCUAAGCGCCCGCCCGGGCGUAUGGCAACGCGGAGCCAAGCUUCGGCGCCUGCGCCGAUGGAGGUGUAGGGACUAGACGGCACCCACCUAAGGCGAACGAUAUGGUGAAGGCAUAGUCUAGGGAGAGGCGAAAGUCACACAAACCGG [C82G A111G A120G A145G C150A C169U U176A]	0.0177
GUGCCUUGCGCCGGGAAACCACGCAAGGGAUGGUGUCAAAUUCGGCGAAACCUAAGCGCCCGCCCGGGCGUAUGGCAACGCGGAGCCAAGCUUCGGCGCCUGCGCCGAUGGAGGUGUAGGGACUAGACGGCACCCACCUAAGGCGAACGGUAUGGUGAAGGCAUAGUCAAGGGAGGGGCGAAAGUCACACAAACCGG [C82G A111G A120G A145G C150G C169A U176G]	0.00881
GUGCCUUGCGCCGGGAAACCACGCAAGGGAUGGUGUCAAAUUCGGCGAAACCUAAGCGCCCGCCCGGGCGUAUGGCAACGCGGAGCCAAGCUUCGGCGCCUGCGCCGAUGGAGGUGUAGGGACUAGACGGCACCCACCUAAGGCGAACGGUAUGGUGAAGGCAUAGUCAAGGGAGAGGCGAAAGUCACACAAACCGG [C82G A111G A120G A145G C150G C169A U176A]	0.0146
GUGCCUUGCGCCGGGAAACCACGCAAGGGAUGGUGUCAAAUUCGGCGAAACCUAAGCGCCCGCCCGGGCGUAUGGCAACGCGGAGCCAAGCUUCGGCGCCUGCGCCGAUGGAGGUGUAGGGACUAGACGGCACCCACCUAAGGCGAACGGUAUGGUGAAGGCAUAGUCAAGGGAGCGGCGAAAGUCACACAAACCGG [C82G A111G A120G A145G C150G C169A U176C]	0.0138
GUGCCUUGCGCCGGGAAACCACGCAAGGGAUGGUGUCAAAUUCGGCGAAACCUAAGCGCCCGCCCGGGCGUAUGGCAACGCGGAGCCAAGCUUCGGCGCCUGCGCCGAUGGAGGUGUAGGGACUAGACGGCACCCACCUAAGGCGAACGAUAUGGUGAAGGCAUAGUCGAGGGAGCGGCGAAAGUCACACAAACCGG [C82G A111G A120G A145G C150A C169G U176C]	0.0272
GUGCCUUGCGCCGGGAAACCACGCAAGGGAUGGUGUCAAAUUCGGCGAAACCUAAGCGCCCGCCCGGGCGUAUGGCAACGCGGAGCCAAGCUUCGGCGCCUGCGCCGAUGGAGGUGUAGGGACUAGACGGCACCCACCUAAGGCGAACGAUAUGGUGAAGGCAUAGUCGAGGGAGGGGCGAAAGUCACACAAACCGG [C82G A111G A120G A145G C150A C169G U176G]	0.00618
GUGCCUUGCGCCGGGAAACCACGCAAGGGAUGGUGUCAAAUUCGGCGAAACCUAAGCGCCCGCCCGGGCGUAUGGCAACGCGGAGCCAAGCUUCGGCGCCUGCGCCGAUGGAGGUGUAGGGACUAGACGGCACCCACCUAAGGCGAACGAUAUGGUGAAGGCAUAGUCGAGGGAGAGGCGAAAGUCACACAAACCGG [C82G A111G A120G A145G C150A C169G U176A]	0.0177
GUGCCUUGCGCCGGGAAACCACGCAAGGGAUGGUGUCAAAUUCGGCGAAACCUAAGCGCCCGCCCGGGCGUAUGGCAACGCGGAGCCAAGCUUCGGCGCCUGCGCCGAUGGAGGUGUAGGGACUAGACGGCACCCACCUAAGGCGAACGAUAUGGUGAAGGCAUAGUCCAGGGAGGGGCGAAAGUCACACAAACCGG [C82G A111G A120G A145G C150A U176G]	0.0096
GUGCCUUGCGCCGGGAAACCACGCAAGGGAUGGUGUCAAAUUCGGCGAAACCUAAGCGCCCGCCCGGGCGUAUGGCAACGCGGAGCCAAGCUUCGGCGCCUGCGCCGAUGGAGGUGUAGGGACUAGACGGCACCCACCUAAGGCGAACGAUAUGGUGAAGGCAUAGUCCAGGGAGCGGCGAAAGUCACACAAACCGG [C82G A111G A120G A145G C150A U176C]	0.0232
GUGCCUUGCGCCGGGAAACCACGCAAGGGAUGGUGUCAAAUUCGGCGAAACCUAAGCGCCCGCCCGGGCGUAUGGCAACGCGGAGCCAAGCUUCGGCGCCUGCGCCGAUGGAGGUGUAGGGACUAGACGGCACCCACCUAAGGCGAACGAUAUGGUGAAGGCAUAGUCCAGGGAGAGGCGAAAGUCACACAAACCGG [C82G A111G A120G A145G C150A U176A]	0.0107
